Results: PMC12143592, “Bacterial RecD2 is a processive single-stranded DNA translocase with strand-switching capacity at DNA forks” (Nucleic Acids Research, 2025)

Experiments:
[1] = molecular target: T1, RecD2 (His-tagged) (Bacillus subtilis, UniProt O34481 1-798); assay: EMSA; conditions: 2 mM MgCl2, 1 mM ATPgS, EMSA: 0.25 nM 32P-DNA, buffer B (composition not in material), 2 mM MgCl2 (or 10 mM), 15 min 37 C, then 0.05% glutaraldehyde 15 min 37 C, 8% PAGE …
T1 sequence: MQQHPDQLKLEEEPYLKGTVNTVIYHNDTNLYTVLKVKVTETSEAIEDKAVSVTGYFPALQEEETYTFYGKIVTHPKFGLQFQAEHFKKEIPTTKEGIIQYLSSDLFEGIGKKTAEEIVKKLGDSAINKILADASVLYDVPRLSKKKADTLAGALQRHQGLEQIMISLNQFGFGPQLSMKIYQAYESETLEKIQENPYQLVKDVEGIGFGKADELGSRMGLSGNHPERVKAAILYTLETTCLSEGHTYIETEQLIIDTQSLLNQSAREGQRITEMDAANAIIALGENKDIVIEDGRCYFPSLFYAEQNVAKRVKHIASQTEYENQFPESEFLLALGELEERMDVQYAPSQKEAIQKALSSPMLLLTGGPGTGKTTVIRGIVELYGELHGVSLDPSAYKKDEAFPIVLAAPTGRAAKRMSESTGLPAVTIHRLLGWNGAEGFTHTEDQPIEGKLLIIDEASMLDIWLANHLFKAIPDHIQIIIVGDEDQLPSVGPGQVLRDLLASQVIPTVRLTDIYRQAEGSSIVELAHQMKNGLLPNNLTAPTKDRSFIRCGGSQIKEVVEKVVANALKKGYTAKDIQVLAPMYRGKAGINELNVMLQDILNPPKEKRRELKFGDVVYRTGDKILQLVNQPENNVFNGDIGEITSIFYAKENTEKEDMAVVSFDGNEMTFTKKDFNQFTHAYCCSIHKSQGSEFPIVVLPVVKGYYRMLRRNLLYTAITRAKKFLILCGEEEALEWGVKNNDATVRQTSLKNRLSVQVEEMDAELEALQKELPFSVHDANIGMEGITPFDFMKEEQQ

[2] = molecular target: T1, RecD2 (His-tagged); assay: EMSA; 10 mM MgCl2, 1 mM ATPgS; EMSA: 0.25 nM 32P-DNA, buffer B (composition not in material), 1 mM ATPgS, 2 mM MgCl2 (or 10 mM), 15 min 37 C, then 0.05% glutaraldehyde 15 min 37 C, 8% PAGE; single-molecule: buffer A (composition not in material); conditions: protein: recombinant; tags: 6xHis (not removed); label: 32P
[3] = molecular target: T1, RecD2 (His-tagged); assay: EMSA; 2 mM MgCl2, 1 mM ATPgS; EMSA: 0.25 nM 32P-DNA, buffer B (composition not in material), 1 mM ATPgS, 2 mM MgCl2 (or 10 mM), 15 min 37 C, then 0.05% glutaraldehyde 15 min 37 C, 8% PAGE; single-molecule: buffer A (composition not in material); conditions: protein: recombinant; tags: 6xHis (not removed); label: 32P
[4] = substrate: Nc1ncnc2c1ncn2[C@@H]1O[C@H](COP(=O)(O)OP(=O)(O)OP(=O)(O)O)[C@@H](O)[C@H]1O; assay: coupled ATP/NADH spectrophotometric ATPase assay, Michaelis-Menten fit; assay type: biochemical, Bacillus subtilis; conditions: ssDNA cofactor dT80 (3 μM nucleotides), 5 nM RecD2, 2 mM MgCl2, pH 7.5, 37 °C, turnover printed as Vmax per RecD2

5'-tailed duplex (30 nt tail)
K half [1]: 16 nM

3'-tailed duplex (30 nt tail)
K half [1]: 14 nM

CTAATTTACGCTAACCTACGATGAGCAGCC (ssDNA) [30-nt random ssDNA (22-M-30)]
apparent K (half saturation) [2]: 246 ± 20.2 nM
apparent K (half saturation) [3]: 212 ± 17.7 nM

TTTTTTTTTTTTTTTTTTTTTTTTTTTTTT (ssDNA) [poly(dT)30]
apparent K (half saturation) [3]: ~6 nM

B1: RecD2 (BsRecD2) (Bacillus subtilis subsp. subtilis str. 168) (protein)
chain: T1 sequence
Km [4]: 82 µM
kcat [4]: ~223 s⁻¹

B2: 80-nt random ssDNA (17-M-80) (ssDNA)
DNA: ACGGCCTAGAACGGCCTAGAACGGCCTAGATCGTGAACCTGCAGGTAAGGGGCTGCTCATCGTAGGTTAGCGTAAATTAG
apparent K (half saturation) [2]: 39.1 ± 15.4 nM
apparent K (half saturation) [3]: 11.1 ± 5.4 nM

B3: 60-nt random ssDNA (17-M-60) (ssDNA)
DNA: ACGGCCTAGATCGTGAACCTGCAGGTAAGGGGCTGCTCATCGTAGGTTAGCGTAAATTAG
apparent K (half saturation) [2]: 44.2 ± 14.1 nM
apparent K (half saturation) [3]: 13.5 ± 4.2 nM
